Measurements from article PMC6071512.

Target: His6-RumM (ruminococcin-A lanthionine synthetase RumM) (Ruminococcus gnavus E1) (UniProt P83674)

His6-GFP-TEV-preRumA* (GFP fusion of the precursor peptide preRumA with Gly-1 replaced by Arg), co-expressed with RumM (from UniProt P83674 24-47)
fraction of His6-GFP-TEV-preRumA* complexed with His6-RumM that TEV protease digested (the free construct was completely digested), SDS-PAGE: 50%
